How the values were obtained:
[1] = biological target: T1, PurTCp (PurT of Colwellia psychrerythraea) (Colwellia psychrerythraea, UniProt Q484N1); assay: SPA competition with 3H-xanthine or 3H-guanine; assay type: binding; settings: 0.5 µM 3H-xanthine or 3H-guanine; pH 8.0
T1 sequence (Q484N1 1-482): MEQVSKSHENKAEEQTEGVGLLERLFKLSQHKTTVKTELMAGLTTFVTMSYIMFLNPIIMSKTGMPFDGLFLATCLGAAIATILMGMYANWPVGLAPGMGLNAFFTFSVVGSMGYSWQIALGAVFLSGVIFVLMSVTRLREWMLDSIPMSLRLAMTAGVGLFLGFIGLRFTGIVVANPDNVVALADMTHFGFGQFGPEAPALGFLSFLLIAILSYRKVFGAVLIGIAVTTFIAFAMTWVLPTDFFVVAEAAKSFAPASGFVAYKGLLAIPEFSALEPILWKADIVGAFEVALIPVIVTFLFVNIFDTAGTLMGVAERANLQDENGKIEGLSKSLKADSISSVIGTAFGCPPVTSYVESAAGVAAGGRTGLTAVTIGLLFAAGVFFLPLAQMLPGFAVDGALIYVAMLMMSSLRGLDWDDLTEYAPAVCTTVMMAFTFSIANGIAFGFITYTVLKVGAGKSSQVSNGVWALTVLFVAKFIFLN

[2] = biological target: PurT of Colwellia psychrerythraea (PurTCp) (Colwellia psychrerythraea 34H); assay: cross-linking
[3] = biological target: PurT of Colwellia psychrerythraea (PurTCp) (Colwellia psychrerythraea 34H); assay: SEC

stoichiometry N [2]	stoichiometry N [3]	Compound	% inhibition at 250 μM [1]
		c1ncc2[nH]cnc2n1 [purine]	2-amino-6-bromopurine, 6-bromopurine, 6-thioguanine, allopurinol, isoguanine, and purine
2	2	PurT of Colwellia psychrerythraea (PurTCp) (natural protein)	
